# Assay results as given in US20250320312A1 (OXITOPE PHARMA B V, published 2025).
# Target: PC-BSA
# Test: ELISA (DELFIA TRF), PC-BSA coated, titrated IgG1
# PC-BSA, sequence (P02769 25-607 limits assumed, form in doubt): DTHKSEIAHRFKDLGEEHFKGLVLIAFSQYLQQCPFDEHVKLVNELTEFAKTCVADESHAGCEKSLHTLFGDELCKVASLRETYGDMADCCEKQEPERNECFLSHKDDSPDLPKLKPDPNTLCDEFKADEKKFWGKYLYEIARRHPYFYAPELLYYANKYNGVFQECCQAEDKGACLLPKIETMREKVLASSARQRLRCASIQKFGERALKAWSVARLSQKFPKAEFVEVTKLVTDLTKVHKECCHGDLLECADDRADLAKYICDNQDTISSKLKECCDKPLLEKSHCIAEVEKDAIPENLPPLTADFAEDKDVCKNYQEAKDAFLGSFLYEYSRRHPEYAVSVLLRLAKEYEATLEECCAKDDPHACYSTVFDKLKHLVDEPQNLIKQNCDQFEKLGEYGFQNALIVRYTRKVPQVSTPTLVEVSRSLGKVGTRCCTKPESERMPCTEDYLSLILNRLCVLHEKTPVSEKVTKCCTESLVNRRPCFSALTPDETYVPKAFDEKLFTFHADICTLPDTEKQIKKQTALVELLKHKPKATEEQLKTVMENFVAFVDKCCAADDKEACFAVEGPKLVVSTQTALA
binder,measurement,value
"PcOxP_DB03_D08 (human IgG1) (antibody, V domains shown) VH: EVQLLESGGGLVQPGGSLRLSCAASGFWFSDFYMEWVRQAPGKGLEWVAASRNKANDYTTEYADSVKGRFTISRDNSKNTLYLQMNSLRAEDTAVYYCARDYYGSAYWYFDVWGQGTLVTVSS VL: DIQMTQSPSSLSASVGDRVTITCTASESLYSSKHKVHYLAWYQQKPGKAPKLLIYGASNRYIGVPSRFSGSGSGTDFTLTISSLQPEDFATYYCAQFYSYPLTFGGGTKVEIK",EC50,0.401 nM
"PcOxP_DB04_E08 (human IgG1) (antibody, V domains shown) VH: EVQLLESGGGLVQPGGSLRLSCAASGFTSSDFYLEWVRQAPGKGLEWVAASRNKWNDYTTEYADSVKGRFTISRDNSKNTLYLQMNSLRAEDTAVYYCARDYYGSSYWYFDVWGQGTLVTVSS VL: DIVMTQSPDSLAVSLGERATINCTASESLYSSKHKVHYLAWYQQKPGQPPKLLIYGVSNRYIGVPDRFSGSGSGTDFTLTISSLQAEDVAVYYCAQFYSYPLTFGGGTKVEIK",EC50,0.251 nM
"PcOxP_DB03_G07 (human IgG1) (antibody, V domains shown) VH: EVQLLESGGGLVQPGGSLRLSCAASGFTFSDHYMEWVRQAPGKGLEWVAASRNKANDYTTEYADSVKGRFTISRDNSKNTLYLQMNSLRAEDTAVYYCARDYYGQSYWYFDVWGQGTLVTVSS VL: DIQMTQSPSSLSASVGDRVTITCTASESLYSSKHKVHYLAWYQQKPGKAPKLLIYGASNRYIGVPSRFSGSGSGTDFTLTISSLQPEDFATYYCAQFYSYPLTFGGGTKVEIK",EC50,0.636 nM
"PcOxP_DB03_G03 (human IgG1) (antibody, V domains shown) VH: EVQLLESGGGLVQPGGSLRLSCAASGFTSSDFYMEWVRQAPGKGLEWVAASRNKANDYTTEYADSVKGRFTISRDNSKNTLYLQMNSLRAEDTAVYYCARDYYGSSYWYFDVWGQGTLVTVSS VL: DIQMTQSPSSLSASVGDRVTITCTASQSISSSKHKVHYLAWYQQKPGKAPKLLIYGASNHYIGVPSRFSGSGSGTDFTLTISSLQPEDFATYYCAQFYSYPLTFGGGTKVEIK",EC50,0.216 nM
"PcOxP_DB04_A04 (human IgG1) (antibody, V domains shown) VH: EVQLLESGGGLVQPGGSLRLSCAASGFTFSDFYMEWVRQAPGKGLEWVAASRNKWNDYTTEYADSVKGRFTISRDNSKNTLYLQMNSLRAEDTAVYYCARDYYGSSYWYFDVWGQGTLVTVSS VL: DIVMTQSPDSLAVSLGERATINCTASQSVYSSKNKKHYLAWYQQKPGQPPKLLIYGASNRYIGVPDRFSGSGSGTDFTLTISSLQAEDVAVYYCAQFYRYPLTFGGGTKVEIK",EC50,0.294 nM
"PcOxP_DB02_A05 (human IgG1) (antibody, V domains shown) VH: EVQLLESGGGLVQPGGSLRLSCAASGFTGSDFYMEWVRQAPGKGLEWVAASRNKWNDYTTEYADSVKGRFTISRDNSKNTLYLQMNSLRAEDTAVYYCARDYYGSSYWYFDVWGQGTLVTVSS VL: DIVMTQSPDSLAVSLGERATINCTASESLYSSKHKVHYLAWYQQKPGQPPKLLIYGAGNRYIGVPDRFSGSGSGTDFTLTISSLQAEDVAVYYCAQFYSYPLTFGGGTKVEIK",EC50,0.264 nM
"PcOxP_DB03_G12 (human IgG1) (antibody, V domains shown) VH: EVQLLESGGGLVQPGGSLRLSCAASGFTFSDYYMEWVRQAPGKGLEWVAASRNKYNDYTTEYADSVKGRFTISRDNSKNTLYLQMNSLRAEDTAVYYCARDYYGSSYWYFDVWGQGTLVTVSS VL: DIVMTQSPDSLAVSLGERATINCKSSESVYSSKHKKHYLAWYQQKPGQPPKLLIYGASNRYIGVPDRFSGSGSGTDFTLTISSLQAEDVAVYYCAQFYSYPLTFGGGTKVEIK",EC50,0.557 nM
"PcOxP_DB01_F06 (human IgG1) (antibody, V domains shown) VH: EVQLLESGGGLVQPGGSLRLSCAASGDTFSDFYMEWVRQAPGKGLEWVAASRNKANDYTTEYADSVKGRFTISRDNSKNTLYLQMNSLRAEDTAVYYCARDYYGSSYWYFDVWGQGTLVTVSS VL: DIVMTQSPDSLAVSLGERATINCKSSQSLYYSSNKKNYLAWYQQKPGQPPKLLIYGASNRYGGVPDRFSGSGSGTDFTLTISSLQAEDVAVYYCAQFYRYPLTFGGGTKVEIK",EC50,0.216 nM
"PcOxP_DB02_F10 (human IgG1) (antibody, V domains shown) VH: EVQLLESGGGLVQPGGSLRLSCAASGFTFSDQYMEWVRQAPGKGLEWVAASRNKANDYTTEYADSVKGRFTISRDNSKNTLYLQMNSLRAEDTAVYYCARDYYGSSYWYFDVWGQGTLVTVSS VL: DIVMTQSPDSLAVSLGERATINCTSSQSVLSSKHNKNYLAWYQQKPGQPPKLLIYGASNRYWGVPDRFSGSGSGTDFTLTISSLQAEDVAVYYCAQFYSYPLTFGGGTKVEIK",EC50,0.659 nM
"PcOxP_DB01_H08 (human IgG1) (antibody, V domains shown) VH: EVQLLESGGGLVQPGGSLRLSCAASGFTHSDFYMEWVRQAPGKGLEWVAASRNKANDYTTEYADSVKGRFTISRDNSKNTLYLQMNSLRAEDTAVYYCARDYYGSSYWYFDVWGQGTLVTVSS VL: DIQMTQSPSSLSASVGDRVTITCRASESISSSKHKHYLAWYQQKPGKAPKLLIYGASNRYIGVPSRFSGSGSGTDFTLTISSLQPEDFATYYCAQFYVYPLTFGGGTKVEIK",EC50,0.244 nM
"PcOxP_DB03_G11 (human IgG1) (antibody, V domains shown) VH: EVQLLESGGGLVQPGGSLRLSCAASGFTFSSYYMEWVRQAPGKGLEWVAASRNKANDYTTEYADSVKGRFTISRDNSKNTLYLQMNSLRAEDTAVYYCARDYYGSSYWYFDVWGQGTLVTVSS VL: DIVMTQSPDSLAVSLGERATINCKSSQSVLSSKHKKNYLAWYQQKPGQPPKLLIYGASNRYIGVPDRFSGSGSGTDFTLTISSLQAEDVAVYYCAQFYSYPLTFGGGTKVEIK",EC50,0.244 nM
"PcOxP_DB02_B04 (human IgG1) (antibody, V domains shown) VH: EVQLLESGGGLVQPGGSLRLSCAASGFTFSDYYMEWVRQAPGKGLEWVAASRNKWNDYTTEYADSVKGRFTISRDNSKNTLYLQMNSLRAEDTAVYYCARDYYGSSYWYFDVWGQGTLVTVSS VL: DIVMTQSPDSLAVSLGERATINCTASESLYSSKHKVHYLAWYQQKPGQPPKLLIYGASNRYIGVPDRFSGSGSGTDFTLTISSLQAEDVAVYYCAQFYSYPLTFGGGTKVEIK",EC50,0.278 nM
"PcOxP_DB03_E01 (human IgG1) (antibody, V domains shown) VH: EVQLLESGGGLVQPGGSLRLSCAASGFTFSDYYMEWVRQAPGKGLEWVAASRNKANDYTVEYADSVKGRFTISRDNSKNTLYLQMNSLRAEDTAVYYCARDYYGSSYWYFDVWGQGTLVTVSS VL: DIQMTQSPSSLSASVGDRVTITCTASESLYSSKHKVHYLAWYQQKPGKAPKLLIYGTSNRYIGVPSRFSGSGSGTDFTLTISSLQPEDFATYYCAQFYEYPLTFGGGTKVEIK",EC50,0.857 nM
"PcOxP_DB01_B06 (human IgG1) (antibody, V domains shown) VH: EVQLLESGGGLVQPGGSLRLSCAASGFTFSSYYMEWVRQAPGKGLEWVAASRNKYNDYTTEYADSVKGRFTISRDNSKNTLYLQMNSLRAEDTAVYYCARDYYGSSTWYFDVWGQGTLVTVSS VL: DIVMTQSPDSLAVSLGERATINCTASESLYSSKHKVHYLAWYQQKPGQPPKLLIYGASNRYIGVPDRFSGSGSGTDFTLTISSLQAEDVAVYYCAQFYSYPLTFGGGTKVEIK",EC50,0.219 nM
"PcOxP_DB01_F04 (human IgG1) (antibody, V domains shown) VH: EVQLLESGGGLVQPGGSLRLSCAASGFTFSSYYMEWVRQAPGKGLEWVAASRNKYNDYTTEYADSVKGRFTISRDNSKNTLYLQMNSLRAEDTAVYYCARDYYGSSYWYFDVWGQGTLVTVSS VL: DIQMTQSPSSLSASVGDRVTITCTASESLYSSKHKVHYLAWYQQKPGKAPKLLIYGAVNRYIGVPSRFSGSGSGTDFTLTISSLQPEDFATYYCAQFYRYPLTFGGGTKVEIK",EC50,0.344 nM
"PcOxP_DB04_A09 (human IgG1) (antibody, V domains shown) VH: EVQLLESGGGLVQPGGSLRLSCAASGFTFSDYYMEWVRQAPGKGLEWVAASRNKWNDYTTEYADSVKGRFTISRDNSKNTLYLQMNSLRAEDTAVYYCARDYYGSSYWYFDVWGQGTLVTVSS VL: DIQMTQSPSSLSASVGDRVTITCTAEESLYSSKHKVHYLAWYQQKPGKAPKLLIYGASNLYSGVPSRFSGSGSGTDFTLTISSLQPEDFATYYCAQFYSYPLTFGGGTKVEIK",EC50,0.269 nM
"PcOxP_DB04_G01 (human IgG1) (antibody, V domains shown) VH: EVQLLESGGGLVQPGGSLRLSCAASGFTFSDYYMEWVRQAPGKGLEWVAASRNKWNDYTTEYADSVKGRFTISRDNSKNTLYLQMNSLRAEDTAVYYCARDYYLSSYWYFDVWGQGTLVTVSS VL: DIVMTQSPDSLAVSLGERATINCKASQSVLSSKNNVNYLAWYQQKPGQPPKLLIYGASNRYIGVPDRFSGSGSGTDFTLTISSLQAEDVAVYYCAQFYQYPLTFGGGTKVEIK",EC50,0.257 nM
"PcOxP_DB03_H03 (human IgG1) (antibody, V domains shown) VH: EVQLLESGGGLVQPGGSLRLSCAASGFTGSDFYMEWVRQAPGKGLEWVAASRNKWNDYTTEYADSVKGRFTISRDNSKNTLYLQMNSLRAEDTAVYYCARDYYGSSYWYFDVWGQGTLVTVSS VL: DIQMTQSPSSLSASVGDRVTITCTASESLSSSKHKHYLAWYQQKPGKAPKLLIYGASSRYSGVPSRFSGSGSGTDFTLTISSLQPEDFATYYCAQFYSYPLTFGGGTKVEIK",EC50,0.229 nM
"PcOxP_DB01_F11 (human IgG1) (antibody, V domains shown) VH: EVQLLESGGGLVQPGGSLRLSCAASGFTFSSYYMEWVRQAPGKGLEWVAASRNKANDYTTEYADSVKGRFTISRDNSKNTLYLQMNSLRAEDTAVYYCARDYYGSSYWYYDVWGQGTLVTVSS VL: DIVMTQSPDSLAVSLGERATINCTASESLYSSKHKVHYLAWYQQKPGQPPKLLIYGASNRYIGVPDRFSGSGSGTDFTLTISSLQAEDVAVYYCAQFYSYPLTFGGGTKVEIK",EC50,0.244 nM
"PcOxP_DB02_G04 (human IgG1) (antibody, V domains shown) VH: EVQLLESGGGLVQPGGSLRLSCAASGFTFSDYYMEWVRQAPGKGLEWVAASRWKANDYTTEYADSVKGRFTISRDNSKNTLYLQMNSLRAEDTAVYYCARDYYGSSYWYFDVWGQGTLVTVSS VL: DIVMTQSPDSLAVSLGERATINCKASQSVLYSKNKKHYLAWYQQKPGQPPKLLIYGASNRQIGVPDRFSGSGSGTDFTLTISSLQAEDVAVYYCAQFYVYPLTFGGGTKVEIK",EC50,0.231 nM
"PcOxP_DB02_C09 (human IgG1) (antibody, V domains shown) VH: EVQLLESGGGLVQPGGSLRLSCAASGFTFSDAYMEWVRQAPGKGLEWVAASRNKANDYTTEYADSVKGRFTISRDNSKNTLYLQMNSLRAEDTAVYYCARDYYGSSYWYFDVWGQGTLVTVSS VL: DIQMTQSPSSLSASVGDRVTITCTASESLYSSKHKVHYLAWYQQKPGKAPKLLIYGAGNRYIGVPSRFSGSGSGTDFTLTISSLQPEDFATYYCAQFYFYPLTFGGGTKVEIK",EC50,0.394 nM
